{
  "source": "paper PMC4655273",
  "about": "“Schwann Cell Expressed Nogo-B Modulates Axonal Branching of Adult Sensory Neurons Through the Nogo-B Receptor NgBR” (Frontiers in Cellular Neuroscience, 2015)",
  "target": "T1, Nogo-B (mouse (endogenous in primary Schwann …, UniProt Q99P72-5 1-356))",
  "T1 sequence (looked up)": "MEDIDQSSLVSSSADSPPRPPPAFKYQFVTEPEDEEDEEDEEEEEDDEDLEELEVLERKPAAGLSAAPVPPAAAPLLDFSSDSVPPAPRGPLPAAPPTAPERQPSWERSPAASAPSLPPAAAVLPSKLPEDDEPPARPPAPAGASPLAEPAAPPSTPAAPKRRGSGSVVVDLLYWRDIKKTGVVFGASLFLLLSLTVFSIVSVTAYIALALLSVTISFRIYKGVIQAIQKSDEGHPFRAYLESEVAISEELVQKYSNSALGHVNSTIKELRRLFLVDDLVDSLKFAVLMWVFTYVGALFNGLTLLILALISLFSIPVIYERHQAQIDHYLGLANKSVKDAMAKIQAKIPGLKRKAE",
  "test": "cell-based or functional assay",
  "data": [
    {"binder": "Nogo-B receptor NgBR (receptor, mouse (endogenous in sensory neurons), UniProt Q99LJ8 1-297, looked up) MTGLYELVWRVLHALLCLHLTLTSWLRVRFGTWNWIWRRCCRAASAAVLAPLGFTLRKPRAVGRNRRHHRHPHGGPGPGPGPAATHPRLRWRADVRSLQKLPVHMGLLVTEEVQEPSFSDIASLVVWCMAVGISYISVYDHQGIFKRNNSRLMDEILKQQQELLGQDCSKYSAEFANSNDKDDQDLNCPSAVKVLSPEDGKADIVRAAQDFCQLVAQQQRKPTDLDVDLLGSLLSSHGFPDPDLVLKFGPVDSTLGFLPWQIRLTEIVSLPSHLNISYEDFFSALRQYAACEQRLGK", "values": [
      {"measurement": "total neurite length (TNL) of adult wildtype sensory neurons on wildtype Schwann cells with recombinant NgBR-Ecto at 1 μg/ml, relative to control (set to 1.0)", "value": "0.74 relative to the control levels"}
    ]}
  ]
}
